Data reported in patent US8461305B2, “L-fucose α1→6 specific lectin” (J-Oil Mills, Inc., priority 2008, dated 2013).

Columns and labels:
[1] = system: glycoproteins; assay: hemagglutinating inhibition test with glycoproteins (sugar binding specificity); type: cell-based
Description: The sugar binding specificity of lectin also can be confirmed by using erythrocytes that can be specifically agglutinated by the lectin to investigate the sugar type that may inhibit the agglutination of the erythrocytes and the concentration thereof.
Various monosaccharides, oligosaccharides, and polysaccharides shown in Table 2 and glycoproteins shown in Table 3 were subjected to hemagglutinating inhibition test to evaluate PTL of Example 1 and the SRL of Example 2 with regard to the sugar binding specificity.
On a 96 well U-bottom microtiter plate, double dilution series of 10 μl of monosaccharide, oligosaccharide, polysaccharide, and glycoprotein solutions were prepared. Then, lectin solution adjusted in advance to have titer 4 was added in an amount of 10 μl to the respective wells. Then, the plate was subjected to a still-standing at a room temperature for one hour for sensitization. Then, 10 μl of 4%-red blood cell suspension was added to the respective wells and the plate was further subjected to a still-standing at a room temperature for one hour. […] The lowest concentration showing the inhibition was assumed as the minimum inhibition concentration. The lower the minimum inhibition concentration is, the higher the specificity to lectin is.
For comparison, the sugar binding specificity was evaluated using the following commercially-available lectins: Comparison Example 1: AAL (SEIKAGAKU BIOBUSINESS CORPORATION—J-OIL MILLS, Inc.), Comparison Example 2: AOL (TOKYO CHEMICAL INDUSTRY CO., LTD.—Gekkeikan Sake Company, Ltd.), Comparison Example 3: LCA (SEIKAGAKU BIOBUSINESS CORPORATION—J-OIL MILLS, Inc.), and Comparison Example 4: PSA (SEIKAGAKU BIOBUSINESS CORPORATION—J-OIL MILLS, Inc.).

[2] = frontal affinity chromatography (FAC), association constant to PA sugar chains having α1→6 L-fucose; type: binding; settings: 25 degrees C.
Experimental: The following section will describe a method of calculating an association constant by frontal affinity chromatography (FAC). This method is based on the following principle. […] Then, the elution front end (front) is observed immediately. When there is an affinity with lectin, the elution of the sugar chain is delayed.
The preparation of a lectin column used in the apparatus is performed in the method as described below. 1. Purified lectin is dissolved in 0.1 to 0.2M of NaHCO3 buffer solution (pH 8.3 to 8.5). 2. The lectin is immobilized, via a lectin primary amino group, a carrier such as NHS activated sepharose. 3. Then, the lectin is blocked by Tris buffer solution including primary amine or ethanolamine for example. 4. Lectin-sepharose is suspended in 10 mM Tris buffer, including 0.8% of NaCl (pH 7.4, TBS). Then, lectin immobilized resin is filled in a miniature column (φ2 mm×10 mm, 31.4 μl). 5. The miniature column in which the lectin immobilized resin is filled is protected by a holder and the lectin column is connected to an FAC automatic analysis apparatus (FAC-1, SHIMADZU CORPORATION).
Then, the elution of the PA sugar chain from the column is detected by a fluorescence detector (excitation wavelength/fluorescence wavelength: 310 nm/380 nm).
Based on the detection data, by using the elution front end (Vo) of the sugar chain (PA rhamnose) not interacting with lectin as a reference, the delay (V−Vo) of the elution front end (V) of a sugar chain interacting with lectin is calculated as an interaction strength. Then, based on the following FAC criteria expressions, the association constant (Ka) between the sugar chain and lectin is calculated based on V−Vo and Bt. If the interaction strength (V−Vo value) and the association constant are higher, a higher affinity is caused between lectin and an L-fucose α1→6 sugar chain.
[In the formula, A means substance used for the elution, Ao means the initial concentration of the substance A, B means a immobilized ligand, V means the elution volume, Vo means the elution front end volume of the substance not interacting with the immobilized ligand B at all, Bt means an effective ligand amount, Kd means a dissociation constant (an inverse of the association constant)].
Pyridylaminated (PA) sugar chains shown in FIG. 1 and FIG. 2 were used to frontal affinity chromatography (FAC) analysis. PA sugars were purchased from TAKARA BIO INC., SEIKAGAKU BIOBUSINESS CORPORATION, and Masuda Chemical Industries co., LTD. PA sugar were also obtained by pyridylaminating, by GlycoTAG®(TAKARA BIO INC.), an unlabeled sugar chain or a sugar chain obtained by subjecting a sugar chain to enzyme digestion for example.
Lectin was dissolved in 0.2 M NaHCO3 buffer solution (pH 8.3) including 0.5 M NaCl and coupled to the NHS-activated sepharose (GE Healthcare Bioscience) by following the manufacturer's instructions. Then, lectin immobilized sepharose was suspended in 10 mM Tris buffer (pH 7.4, TBS) including […] and the resultant matter was filled in a miniature column (φ2 mm×10 mm, 31.4 μl).
Frontal affinity chromatography was performed using FAC automatic analysis apparatus (FAC-1, SHIMADZU CORPORATION). In particular, the above-prepared lectin column was inserted to a stainless steel holder and the holder was connected to FAC-1 apparatus. The flow rate and the column temperature were maintained at 0.125 ml/min and 25 degrees C., respectively. After the miniature column was equilibrated by the TBS, an excessive volume (0.5 ml to 4 ml) of a PA sugar chain (3.75 nM or 7.5 nM) was continuously inputted to the column using an automatic sampling apparatus.
The fluorescent strength of the eluate of the PA sugar (excitation wavelength of 310 nm and fluorescence wavelength of 380 nm) was monitored to measure the interaction strength [a difference of the front end eluate to the standard oligosaccharide (PA rhamnose): V−V0]. […]

[3] = inhibitor: Bovine blood serum albumin
[4] = inhibitor: Human immune globulin A
[5] = inhibitor: Human immune globulin G
[6] = inhibitor: α1-acidic glycoprotein

Pholiota terrestris lectin [PTL, novel L-fucose α1→6 specific lectin purified from the mushroom Pholiota terrestris]
minimum inhibition concentration of hemagglutination ([1]; inhibitor: Asialofetuin): >250 μl/ml
minimum inhibition concentration of hemagglutination ([1]; inhibitor: Asialomucin (pig)): >250 μl/ml
minimum inhibition concentration of hemagglutination [1, 3]: >250 μl/ml
minimum inhibition concentration of hemagglutination ([1]; inhibitor: Casein): >250 μl/ml
minimum inhibition concentration of hemagglutination ([1]; inhibitor: Fetuin): >250 μl/ml
minimum inhibition concentration of hemagglutination [1, 4]: >250 μl/ml
minimum inhibition concentration of hemagglutination [1, 5]: >250 μl/ml
minimum inhibition concentration of hemagglutination ([1]; inhibitor: Lactoferrin): >250 μl/ml
minimum inhibition concentration of hemagglutination ([1]; inhibitor: Mucin (bovine)): >250 μl/ml
minimum inhibition concentration of hemagglutination ([1]; inhibitor: Mucin (pig)): >250 μl/ml
minimum inhibition concentration of hemagglutination ([1]; inhibitor: Ribonuclease): >250 μl/ml
minimum inhibition concentration of hemagglutination ([1]; inhibitor: Thyroglobulin): 250 μl/ml
minimum inhibition concentration of hemagglutination ([1]; inhibitor: Transferrin): >250 μl/ml
minimum inhibition concentration of hemagglutination [1, 6]: >250 μl/ml
association constant Ka to L-fucose α1→6 sugar chains ([2]; FAC): ≥ 100000 M⁻¹
association constant Ka ([2]; Sugar chain No. 015): 500000 M⁻¹
association constant Ka ([2]; Sugar chain No. 201): 460000 M⁻¹
association constant Ka ([2]; Sugar chain No. 202): 400000 M⁻¹
association constant Ka ([2]; Sugar chain No. 203): 330000 M⁻¹
association constant Ka ([2]; Sugar chain No. 401): 350000 M⁻¹
association constant Ka ([2]; Sugar chain No. 402): 200000 M⁻¹
association constant Ka ([2]; Sugar chain No. 403): 340000 M⁻¹
association constant Ka ([2]; Sugar chain No. 404): 390000 M⁻¹
association constant Ka ([2]; Sugar chain No. 405): 320000 M⁻¹
association constant Ka ([2]; Sugar chain No. 406): 220000 M⁻¹
association constant Ka ([2]; Sugar chain No. 407): 280000 M⁻¹
association constant Ka ([2]; Sugar chain No. 410): 220000 M⁻¹
association constant Ka ([2]; Sugar chain No. 413): 280000 M⁻¹
association constant Ka ([2]; Sugar chain No. 418): 220000 M⁻¹
association constant Ka ([2]; Sugar chain No. 601): 240000 M⁻¹
association constant Ka ([2]; Sugar chain No. 602): 120000 M⁻¹

B1: Aleuria aurantia lectin (protein)
chain: PTEFLYTSKIAAISWAATGGRQQRVYFQDLNGKIREAQRGGDNPWTGGSSQNVIGEAKLFSPLAAVTWKSAQGIQIRVYCVNKDNILSEFVYDGSKWITGQLGSVGVKVGSNSKLAALQWGGSESAPPNIRVYYQKSNGSGSSIHEYVWSGKWTAGASFGSTVPGTGIGATAIGPGRLRIYYQATDNKIREHCWDSNSWYVGGFSASASAGVSIAAISWGSTPNIRVYWQKGREELYEAAYGGSWNTPGQIKDASRPTPSLPDTFIAANSSGNIDISVFFQASGVSLQQWQWISGKGWSIGAVVPTGTPAGW
minimum inhibition concentration of hemagglutination ([1]; inhibitor: Asialofetuin): >250 μl/ml
minimum inhibition concentration of hemagglutination ([1]; inhibitor: Asialomucin (pig)): 31.3 μl/ml
minimum inhibition concentration of hemagglutination [1, 3]: >250 μl/ml
minimum inhibition concentration of hemagglutination ([1]; inhibitor: Casein): >250 μl/ml
minimum inhibition concentration of hemagglutination ([1]; inhibitor: Fetuin): >250 μl/ml
minimum inhibition concentration of hemagglutination [1, 4]: >250 μl/ml
minimum inhibition concentration of hemagglutination [1, 5]: >250 μl/ml
minimum inhibition concentration of hemagglutination ([1]; inhibitor: Lactoferrin): >250 μl/ml
minimum inhibition concentration of hemagglutination ([1]; inhibitor: Mucin (bovine)): >250 μl/ml
minimum inhibition concentration of hemagglutination ([1]; inhibitor: Mucin (pig)): 15.6 μl/ml
minimum inhibition concentration of hemagglutination ([1]; inhibitor: Ribonuclease): >250 μl/ml
minimum inhibition concentration of hemagglutination ([1]; inhibitor: Thyroglobulin): 125 μl/ml
minimum inhibition concentration of hemagglutination ([1]; inhibitor: Transferrin): >250 μl/ml
minimum inhibition concentration of hemagglutination [1, 6]: >250 μl/ml
association constant Ka ([2]; Sugar chain No. 015): 91000 M⁻¹
association constant Ka ([2]; Sugar chain No. 201): 51000 M⁻¹
association constant Ka ([2]; Sugar chain No. 202): 54000 M⁻¹
association constant Ka ([2]; Sugar chain No. 203): 66000 M⁻¹
association constant Ka ([2]; Sugar chain No. 401): 55000 M⁻¹
association constant Ka ([2]; Sugar chain No. 402): 11000 M⁻¹
association constant Ka ([2]; Sugar chain No. 403): 52000 M⁻¹
association constant Ka ([2]; Sugar chain No. 404): 65000 M⁻¹
association constant Ka ([2]; Sugar chain No. 405): 56000 M⁻¹
association constant Ka ([2]; Sugar chain No. 406): 47000 M⁻¹
association constant Ka ([2]; Sugar chain No. 407): 45000 M⁻¹
association constant Ka ([2]; Sugar chain No. 410): 38000 M⁻¹
association constant Ka ([2]; Sugar chain No. 413): 32000 M⁻¹
association constant Ka ([2]; Sugar chain No. 418): <1000 M⁻¹
association constant Ka ([2]; Sugar chain No. 601): 61000 M⁻¹
association constant Ka ([2]; Sugar chain No. 602): 52000 M⁻¹

B2: Lens culinaris agglutinin (protein)
chain 1: TETTSFSITKFSPDQKNLIFQGDGYTTKGKLTLTKAVKSTVGRALYSTPIHIWDRDTGNVANFVTSFTFVIDAPSSYNVADEFTFFIAPVDTKPQTGGGYLGVFNSKEYDKTSQTVAVEFDTFYNAAWDPSNKERHIGIDVNSIKSVNTKSWNLQNGERANVVIAFNAATNVLTVTLTYP
chain 2: VTSYTLNEVVPLKDVVPEWVRIGFSATTGAEFAAHEVHSWSFHSELGGTSSS
minimum inhibition concentration of hemagglutination ([1]; inhibitor: Asialofetuin): 250 μl/ml
minimum inhibition concentration of hemagglutination ([1]; inhibitor: Asialomucin (pig)): >250 μl/ml
minimum inhibition concentration of hemagglutination [1, 3]: >250 μl/ml
minimum inhibition concentration of hemagglutination ([1]; inhibitor: Casein): >250 μl/ml
minimum inhibition concentration of hemagglutination ([1]; inhibitor: Fetuin): >250 μl/ml
minimum inhibition concentration of hemagglutination [1, 4]: >250 μl/ml
minimum inhibition concentration of hemagglutination [1, 5]: >250 μl/ml
minimum inhibition concentration of hemagglutination ([1]; inhibitor: Lactoferrin): >250 μl/ml
minimum inhibition concentration of hemagglutination ([1]; inhibitor: Mucin (bovine)): >250 μl/ml
minimum inhibition concentration of hemagglutination ([1]; inhibitor: Mucin (pig)): >250 μl/ml
minimum inhibition concentration of hemagglutination ([1]; inhibitor: Ribonuclease): >250 μl/ml
minimum inhibition concentration of hemagglutination ([1]; inhibitor: Thyroglobulin): 62.5 μl/ml
minimum inhibition concentration of hemagglutination ([1]; inhibitor: Transferrin): >250 μl/ml
minimum inhibition concentration of hemagglutination [1, 6]: >250 μl/ml
association constant Ka ([2]; Sugar chain No. 015): 56000 M⁻¹
association constant Ka ([2]; Sugar chain No. 201): 500000 M⁻¹
association constant Ka ([2]; Sugar chain No. 202): 110000 M⁻¹
association constant Ka ([2]; Sugar chain No. 203): 73000 M⁻¹
association constant Ka ([2]; Sugar chain No. 401): 42000 M⁻¹
association constant Ka ([2]; Sugar chain No. 402): 59000 M⁻¹
association constant Ka ([2]; Sugar chain No. 403): 99000 M⁻¹
association constant Ka ([2]; Sugar chain No. 404): 58000 M⁻¹
association constant Ka ([2]; Sugar chain No. 405): 47000 M⁻¹
association constant Ka ([2]; Sugar chain No. 406): 18000 M⁻¹
association constant Ka ([2]; Sugar chain No. 407): 1000 M⁻¹
association constant Ka ([2]; Sugar chain No. 410): <1000 M⁻¹
association constant Ka ([2]; Sugar chain No. 413): <1000 M⁻¹
association constant Ka ([2]; Sugar chain No. 418): <1000 M⁻¹
association constant Ka ([2]; Sugar chain No. 601): 30000 M⁻¹
association constant Ka ([2]; Sugar chain No. 602): 24000 M⁻¹
